T1: His6-tagged AR domain (residues 51–288) of zDHHC17 (human, UniProt Q8IUH5 51-288)
T1 construct: ankyrin-repeat (AR) domain of human zDHHC17 (HIP14), residues 51-288; pET303CT-His plasmid; also called ARzD17-His; ARzD17; source: E. coli BL21(DE3)pLysS, purified; not shown: His6 (after a Leu-Glu linker), C-terminal, kept
T1 sequence (looked up): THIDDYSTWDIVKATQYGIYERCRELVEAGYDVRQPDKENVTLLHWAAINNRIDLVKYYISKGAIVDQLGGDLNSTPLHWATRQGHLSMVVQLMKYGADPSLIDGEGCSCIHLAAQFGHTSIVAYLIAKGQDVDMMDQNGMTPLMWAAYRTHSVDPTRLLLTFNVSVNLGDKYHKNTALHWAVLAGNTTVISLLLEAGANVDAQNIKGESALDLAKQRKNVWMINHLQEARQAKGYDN


Target: T1, His6-tagged AR domain (residues 51–288) …
Experiment: peptide or protein array; far-Western on an array of 109 SPOT-synthesised 12-mer peptides on cellulose membrane; ARzD17-His (51–288) 500 nM in PBS-T overnight at 4 °C; detected with His6 tag antibody; signals normalised to the highest (1000), values <10 non-binders
Details: both partners purified

binding result | Binder
binds | HQYPLRQPQFRL (peptide, UniProt Q08499 39-50, looked up, 12-mer of human PDE4D with Pro-46 at position 7 and YP at positions 2-3; source: synthetic peptide, SPOT synthesis on cellulose membrane) [PDE4D (Pro-46) zDABM 12-mer peptide]
binds | PRSKIAQPVRSF (peptide, UniProt Q8ND83 534-545, looked up, also called SLAI1; SLAIN motif-containing protein 1; source: synthetic peptide, SPOT synthesis on cellulose membrane) [SLAIN1 (Pro-541) zDABM 12-mer peptide]
